Experimental data reported in patent US20240116985A1, “STAPLED PEPTIDES AND METHODS THEREOF” (priority 2020, published 2024).
Starred links: 1 amine or outer side, 2 acyl side, 3 side chain; linkers in the order of their positions; H or OH if unused. Positions of bridges follow the written chain, without caps; N, C: chain ends. Non-standard residues stand in square brackets, D forms with d. Primed or numbered codes have the meaning given here. No end group written: not given here. *: point of attachment. PyrS2″ = (S)-3-amino-1-((pent-4-en-1-yloxy)carbonyl)pyrrolidine-3-carboxylic acid (stapling residue), C=CCCCOC(=O)N1CC[C@@](N[*:1])(C(=O)[*:2])C1; B5(4) = 2,2-bis(4-pentenyl)glycine = 2-amino-2-(pent-4-en-1-yl)hept-6-enoic acid (stitching residue), C=CCCCC(CCCC=C)(N[*:1])C(=O)[*:2]; PyrS2 = (S)-3-amino-1-((pent-4-en-1-yloxy)carbonyl)pyrrolidine-3-carboxylic acid, C=CCCCOC(=O)N1CC[C@@](N[*:1])(C(=O)[*:2])C1; SPip2 = 4-amino-1-((pent-4-en-1-yloxy)carbonyl)piperidine-4-carboxylic acid, C=CCCCOC(=O)N1CCC(N[*:1])(C(=O)[*:2])CC1; SPip3 = 4-amino-1-((hex-5-en-1-yloxy)carbonyl)piperidine-4-carboxylic acid, C=CCCCCOC(=O)N1CCC(N[*:1])(C(=O)[*:2])CC1; SPip1 = 4-amino-1-((but-3-en-1-yloxy)carbonyl)piperidine-4-carboxylic acid, C=CCCOC(=O)N1CCC(N[*:1])(C(=O)[*:2])CC1; B5(25) = 2-amino-2-(pent-4-en-1-yl)hept-6-enoic acid (stitching residue), C=CCCCC(CCCC=C)(N[*:1])C(=O)[*:2]; B5(3) = 2,2-bis(4-pentenyl)glycine (stitching residue), C=CCCCC(CCCC=C)(N[*:1])C(=O)[*:2]; B5 = 2-amino-2-(pent-4-en-1-yl)hept-6-enoic acid, C=CCCCC(CCCC=C)(N[*:1])C(=O)[*:2]; NdiMeButC = N-terminal 4-(dimethylamino)butanoyl, CN(C)CCCC(=O)*; Phe(3-CF3) = N[C@@H](Cc1cccc(C(F)(F)F)c1)C(=O)O; Phe(4-CF3) = N[C@@H](Cc1ccc(C(F)(F)F)cc1)C(=O)O; Phe(3-COOH) = N[C@@H](Cc1cccc(C(=O)O)c1)C(=O)O; Phe(2-CF3) = N[C@@H](Cc1ccccc1C(F)(F)F)C(=O)O; Phe(2-Cl) = N[C@@H](Cc1ccccc1Cl)C(=O)O; Bta = N[C@@H](Cc1csc2ccccc12)C(=O)O; αAllylPro = C=CC[C@@]1(C(=O)O)CCCN1; hPhe = N[C@@H](CCc1ccccc1)C(=O)O; tBuAla = CC(C)(C)C[C@H](N)C(=O)O; 3Thi = N[C@@H](Cc1ccsc1)C(=O)O; R5 = C=CCCC[C@@](C)(N)C(=O)O; Octanoyl = CCCCCCCC(=O)*

B1: I-1063 (peptide)
peptide: Ac-[αAllylPro]D[tBuAla][B5(3)]DEAAFL[PyrS2][Phe(2-Cl)][Bta]Q-NH2
modifications: staple 1-4, 4-11
B2: I-1064 (peptide)
peptide: Ac-[αAllylPro]D[tBuAla][B5(3)]DDAAFL[PyrS2][Phe(2-Cl)][Bta]S-NH2
modifications: staple 1-4, 4-11; not fully specified; printed as Ac-PL3-Asp-Npg-B5-Asp-Asp-Ala-Ala-Phe-Leu-PyrS2-2C1F-BztA-Ser-NH2
B3: I-1351 (peptide)
peptide: [αAllylPro]D[tBuAla][B5(4)]DDAAFF[PyrS2″][hPhe][Bta]Q-NH2
modifications: staple 1-4, 4-11
B4: I-1355 (peptide)
peptide: Octanoyl-[αAllylPro]D[tBuAla][B5(4)]DDAAFS[PyrS2″]F[Bta]S-NH2
modifications: staple 1-4, 4-11
B5: I-1365 (peptide)
peptide: Ac-[αAllylPro]D[tBuAla][B5(4)]DDAAF[Phe(4-CF3)][PyrS2][3Thi][Bta]Q-NH2
modifications: staple 1-4, 4-11
B6: I-1364 (peptide)
peptide: Ac-[αAllylPro]D[tBuAla][B5(4)]DDAAF[Phe(3-CF3)][PyrS2][3Thi][Bta]Q-NH2
modifications: staple 1-4, 4-11
B7: I-1354 (peptide)
peptide: NdiMeButC-[αAllylPro]D[tBuAla][B5(4)]DDAAFS[PyrS2″]F[Bta]S-NH2
modifications: staple 1-4, 4-11
B8: I-2574 (peptide)
peptide: Ac-[R5]AD[tBuAla][B5(25)]D[Phe(3-COOH)]AAFL[PyrS2″][Phe(2-CF3)][Bta]Q-NH2
modifications: staple 1-5, 5-12 (inferred); also: staple -CH=CH- reduced to -CH2-CH2-
B9: I-2587 (peptide)
peptide: Ac-[αAllylPro]D[tBuAla][B5]D[Phe(3-COOH)]QAFL[SPip3][Phe(2-CF3)][Bta]A-NH2
modifications: staple 1-4, 4-11; not fully specified; printed as Ac-PL3-Asp-Npg-B5-Asp-3COOHF-Gln-Ala-Phe-Leu-SPip3-2F3MeF-BztA-Ala-NH2
B10: I-2591 (peptide)
peptide: Ac-[αAllylPro]D[tBuAla][B5]D[Phe(3-COOH)]QAFL[SPip1][3Thi][Bta]A-NH2
modifications: staple 1-4, 4-11; not fully specified; printed as Ac-PL3-Asp-Npg-B5-Asp-3COOHF-Gln-Ala-Phe-Leu-SPip1-3Thi-BztA-Ala-NH2
B11: I-2585 (peptide)
peptide: Ac-[αAllylPro]D[tBuAla][B5]D[Phe(3-COOH)]QAFL[SPip2][Phe(2-CF3)][Bta]A-NH2
modifications: staple 1-4, 4-11; not fully specified; printed as Ac-PL3-Asp-Npg-B5-Asp-3COOHF-Gln-Ala-Phe-Leu-SPip2-2F3MeF-BztA-Ala-NH2; also: earlier-eluting staple isomer composition
B12: I-2575 (peptide)
peptide: Ac-P[R5]ED[tBuAla][B5(25)]D[Phe(3-COOH)]AAFL[PyrS2″][Phe(2-CF3)][Bta]Q-NH2
modifications: staple 6-13, 2-6 (inferred); not fully specified; printed as Ac-Pro-R5-Glu-Asp-Npg-B5-Asp-3COOHF-Ala-Ala-Phe-Leu-PyrS2-2F3MeF-BztA-Gln-NH2
B13: I-2584 (peptide)
peptide: Ac-[αAllylPro]D[tBuAla][B5]D[Phe(3-COOH)]QAFL[SPip1][Phe(2-CF3)][Bta]A-NH2
modifications: staple 1-4, 4-11; not fully specified; printed as Ac-PL3-Asp-Npg-B5-Asp-3COOHF-Gln-Ala-Phe-Leu-SPip1-2F3MeF-BztA-Ala-NH2
B14: I-2586 (peptide)
peptide: Ac-[αAllylPro]D[tBuAla][B5]D[Phe(3-COOH)]QAFL[SPip2][Phe(2-CF3)][Bta]A-NH2
modifications: staple 1-4, 4-11; not fully specified; printed as Ac-PL3-Asp-Npg-B5-Asp-3COOHF-Gln-Ala-Phe-Leu-SPip2-2F3MeF-BztA-Ala-NH2; also: later-eluting staple isomer composition

The binders below were run against full-length beta-Catenin (Uniprot ID P35222) (Homo sapiens (Human)) (UniProt P35222) (assay: fluorescence polarization competition; full-length beta-catenin, competitor 5FAM-TCF4(10-53) probe).
Target sequence in this assay (P35222 whole entry): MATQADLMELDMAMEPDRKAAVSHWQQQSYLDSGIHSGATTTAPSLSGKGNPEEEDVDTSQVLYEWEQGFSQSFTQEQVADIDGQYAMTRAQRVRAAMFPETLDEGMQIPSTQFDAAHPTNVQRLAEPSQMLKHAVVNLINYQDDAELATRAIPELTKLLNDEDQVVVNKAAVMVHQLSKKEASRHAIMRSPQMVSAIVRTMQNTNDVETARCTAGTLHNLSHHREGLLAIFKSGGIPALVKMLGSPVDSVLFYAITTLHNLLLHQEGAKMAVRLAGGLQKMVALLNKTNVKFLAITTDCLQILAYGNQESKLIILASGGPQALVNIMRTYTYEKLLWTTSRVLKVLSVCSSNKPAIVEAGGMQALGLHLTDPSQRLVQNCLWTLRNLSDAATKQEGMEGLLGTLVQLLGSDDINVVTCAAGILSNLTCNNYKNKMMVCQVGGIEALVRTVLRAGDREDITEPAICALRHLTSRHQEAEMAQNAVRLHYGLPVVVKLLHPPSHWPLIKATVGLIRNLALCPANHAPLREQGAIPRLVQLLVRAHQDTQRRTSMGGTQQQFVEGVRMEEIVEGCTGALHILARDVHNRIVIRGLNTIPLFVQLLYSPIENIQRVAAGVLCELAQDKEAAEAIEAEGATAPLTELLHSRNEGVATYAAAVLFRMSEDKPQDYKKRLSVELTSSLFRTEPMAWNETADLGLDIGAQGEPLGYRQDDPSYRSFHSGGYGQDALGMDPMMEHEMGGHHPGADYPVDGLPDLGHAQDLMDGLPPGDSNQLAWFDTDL

B1 and B2 are within 1.5-fold of each other in EC50: 471 nM for the first, 414 nM for the second.

What follows are binders tested against full-length beta-Catenin (Uniprot ID P35222) (Homo sapiens (Human)) (UniProt P35222) (assay: fluorescence polarization competition; full-length beta-catenin with 5FAM-TCF4(10-53) probe as competitor).
Target sequence in this assay (P35222 2-781 limits assumed): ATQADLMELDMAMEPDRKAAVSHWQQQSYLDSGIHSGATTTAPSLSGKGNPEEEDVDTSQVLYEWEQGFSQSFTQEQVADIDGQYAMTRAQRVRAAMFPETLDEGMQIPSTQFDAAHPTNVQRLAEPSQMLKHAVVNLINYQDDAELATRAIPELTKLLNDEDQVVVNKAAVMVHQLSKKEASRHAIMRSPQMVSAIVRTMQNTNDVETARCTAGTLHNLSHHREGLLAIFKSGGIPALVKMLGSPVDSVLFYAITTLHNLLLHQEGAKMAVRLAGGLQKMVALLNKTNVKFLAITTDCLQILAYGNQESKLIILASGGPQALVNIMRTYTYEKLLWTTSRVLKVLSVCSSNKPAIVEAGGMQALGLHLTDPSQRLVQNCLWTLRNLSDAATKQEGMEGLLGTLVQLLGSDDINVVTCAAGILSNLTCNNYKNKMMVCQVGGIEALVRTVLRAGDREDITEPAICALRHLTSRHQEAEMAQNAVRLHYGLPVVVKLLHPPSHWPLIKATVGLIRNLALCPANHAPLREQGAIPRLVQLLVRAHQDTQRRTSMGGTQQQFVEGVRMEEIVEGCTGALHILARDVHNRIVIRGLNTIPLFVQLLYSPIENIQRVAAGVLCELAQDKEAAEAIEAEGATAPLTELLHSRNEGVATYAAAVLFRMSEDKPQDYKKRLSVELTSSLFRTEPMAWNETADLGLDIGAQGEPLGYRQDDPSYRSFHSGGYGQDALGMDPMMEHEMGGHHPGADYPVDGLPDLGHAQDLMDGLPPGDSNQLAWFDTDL

B3 and B4 are within 1.5-fold of each other in IC50: 258 nM for the first, 213 nM for the second.

B5 and B6 are the same in IC50: 9 nM for the first, 9 nM for the second.

B7 was tested, and the IC50 was 48 nM.

The binders below were run against full-length beta-Catenin (Uniprot ID P35222) (Homo sapiens (Human)) (UniProt P35222) (assay: FP competition; full-length beta-catenin, competitor 5FAM-TCF4(10-53)).
Target sequence in this assay (P35222 whole entry): as the sequence (P35222 whole entry) above

B3 and B4 are within 1.5-fold of each other in EC50: 258 nM for the first, 213 nM for the second.

B5 and B6 are the same in EC50: 9 nM for the first, 9 nM for the second.

With B7 the EC50 was 48 nM.

The binders below were run against full-length beta-Catenin (Uniprot ID P35222) (Homo sapiens (Human)) (UniProt P35222) (assay: fluorescence polarization competition; full-length beta-catenin with 5FAM-TCF4(10-53) probe, peptide titrated).
Target sequence in this assay (P35222 whole entry): as above

B1 and B2 are within 1.5-fold of each other in IC50: 471 nM for the first, 414 nM for the second.

The binders below were run against full-length beta-Catenin (Uniprot ID P35222) (Homo sapiens (Human)) (UniProt P35222) (assay: fluorescence polarization competition; full-length beta-catenin, 5FAM-TCF4 10-53 probe as competitor).
Target sequence in this assay (P35222 whole entry): as above

Going from B8 to B9, the IC50 falls from 2960 nM to 273 nM (11-fold).

B10 and B11 are within 1.5-fold of each other in IC50: 602 nM for the first, 452 nM for the second.

Going from B12 to B13, the IC50 falls from 8160 nM to 1840 nM (4.4-fold). The second is the more potent here.

For B14, the IC50 was 345 nM.
